Molecular target: human CD40 on cells (human) (UniProt P25942)
Experiment: cell-based or functional assay

Sequence of human CD40 on cells (human) (P25942 21-277 limits assumed): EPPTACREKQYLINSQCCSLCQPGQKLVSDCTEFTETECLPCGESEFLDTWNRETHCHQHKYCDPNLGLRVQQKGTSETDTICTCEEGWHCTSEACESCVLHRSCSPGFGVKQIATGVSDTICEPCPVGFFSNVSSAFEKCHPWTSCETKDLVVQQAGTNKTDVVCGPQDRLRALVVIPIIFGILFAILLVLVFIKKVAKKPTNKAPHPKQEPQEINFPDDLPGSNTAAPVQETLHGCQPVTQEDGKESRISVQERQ

EC50, CD83 expression, MoDC maturation assay: 0.24 nM
EC50, IL-8 release, MoDC maturation assay: 0.33 nM
Substance: Hexameric CD40L (from UniProt P29965 116-261) (ligand)

— US20240279350A1
